In US20250270315A1 (ELPISCIENCE SUZHOU BIOPHARMA, published 2025):

T1: C57BL/6 mouse SIRPα ECD recombinant protein (6×His tagged) (C57BL/6 mouse, UniProt P97797 32-373)
T1 construct: extracellular domain; Bought from Biointron; not shown: 6×His tag
T1 sequence (looked up): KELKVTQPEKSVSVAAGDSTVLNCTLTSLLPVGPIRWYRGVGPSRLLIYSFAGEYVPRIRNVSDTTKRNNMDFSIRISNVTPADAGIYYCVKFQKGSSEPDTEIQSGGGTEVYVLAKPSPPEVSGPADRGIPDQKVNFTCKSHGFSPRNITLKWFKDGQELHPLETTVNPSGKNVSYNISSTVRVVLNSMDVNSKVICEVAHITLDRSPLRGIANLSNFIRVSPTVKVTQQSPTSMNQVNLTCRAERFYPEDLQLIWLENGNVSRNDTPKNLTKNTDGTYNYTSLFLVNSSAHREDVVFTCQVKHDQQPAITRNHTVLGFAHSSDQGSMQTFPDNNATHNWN


Columns and labels:
[1] = target: T2, full length human SIRPα v1 stably expressed on CHOK1 or 293F cells (human, UniProt P78324 31-504); experiment: FACS, CHOK1-hSIRPα v1 cells
T2 construct: whole, on cells; also called CHOK1-human SIRPα v1; CHOK1-hSIRPα v1

[2] = target: T3, human SIRPβL ECD recombinant protein (6×His tagged) (human, UniProt Q5TFQ8 30-371); experiment: ELISA, hSIRPβI ECD
T3 construct: given variously as SIRPBL, SIRPBI and SIRPβI; Bought from Biointron; also called human SIRPBL ECD; human SIRPBI ECD
Excerpt: (§1) Binding activity of the purified chimeric antibodies against SIRPβ and SIRPBI was detected by ELISA assay using recombinant proteins of human SIRPβ ECD (FIGS. 3A and 3B), human SIRPBI ECD (FIGS. 3D and 3E) and FACS assay using CHOK 1 cells stably expressing human SIRPB (FIG. 3C).

[3] = target: full length human SIRPα v1 with a small beta-gal fragment (ED) fused to its C-terminal, expressed in K562 … (human, UniProt P78324 31-504); experiment: cell-based or functional assay
[4] = target: T4, human SIRPα v2 ECD recombinant protein (tag not given) (human); experiment: competitive ELISA, mFc-CD47 ECD on coated SIRPα v2 ECD
T4 construct: extracellular domain; also called ELISA microplate coated human SIRPα v2 ECD
Procedure: (§2) Competitive ELISA assay was used to determine whether the purified chimeric antibodies can block CD47 and SIRPα interaction. Briefly, antibody and mFc tagged human CD47 ECD recombinant protein were co-incubated with ELISA microplate coated human SIRPα v1 ECD (FIGS. 6A and 6B) or human SIRPα v2 ECD (FIGS. 7A and 7B) recombinant protein. After washing, HRP labeled anti-mouse Fc 2nd antibody (Sigma) was added and incubated at 37° C. for 1 hour. Then, 100 μl/well of TMB solution (Biotechnology) was added. After incubation for 15 minutes at room temperature, the reaction was stopped by the addition of 50 μl of 1N HCl. OD 450 nm was read. Blocking ratio was determined by blockade of human CD47 ECD recombinant protein binding to ELISA microplate coated human SIRPα ECD recombinant protein. Other than 005, all antibodies as tested can block interaction between human CD47 and different human SIRPα variants.

[5] = target: T1, C57BL/6 mouse SIRPα ECD recombinant …; experiment: ELISA, recombinant C57BL/6 mouse SIRPα ECD
Excerpt: Species cross reactivity of purified chimeric antibodies was detected by ELISA assay using recombinant protein of C57BL/6 mouse SIRPα ECD (FIG. 5A) and FACS assay using CHOK 1 cells stably expressing cyno SIRPα (FIGS. 5B and 5C). All antibodies as tested bind to cyno SIRPα at different levels but have no species cross reactivity against C57BL/6 mouse SIRPα.

[6] = target: Human SIRPα v1 (antigen of the Octet and Biacore affinity measurements) (human, UniProt P78324 31-370, limits assumed); experiment: BLI (Octet), 1:1 binding model
Procedure: The purified chimeric antibodies were characterized for binding affinity against human SIRPα v1, human SIRPα v2 using Bio-Layer Interferometry technology (Octet system). The association and dissociation curves were fit with 1:1 binding model, and the Ka/Kd/KD values for each antibody were calculated.

[7] = target: T5, human SIRPα v1 ECD recombinant protein (tag not given) (human, UniProt P78324 31-373); experiment: competitive ELISA, mFc-CD47 ECD on coated SIRPα v1 ECD
T5 construct: extracellular domain; also called biotin labeled soluble human SIRPα v1 ECD recombinant protein; ELISA microplate coated human SIRPα v1 ECD
Procedure: as §2

[8] = target: T6, human SIRPγ stably expressed on 293F cells (human, UniProt Q9P1W8 29-387); experiment: FACS, 293F-human SIRPγ cells
T6 construct: whole, on cells

[9] = target: T7, human SIRPβ ECD recombinant protein (6×His tagged) (human, UniProt O00241 30-371); experiment: ELISA, hSIRPβ ECD
T7 construct: extracellular domain; Bought from Sino Biological; also called hSIRPβ ECD; not shown: 6×His tag
Excerpt: as §1

[10] = target: T8, mFc tagged human SIRPα v1 ECD recombinant protein (human, UniProt P78324 31-373); experiment: competitive ELISA binning, mFc-SIRPα v1 ECD; competitor 025c
T8 construct: extracellular domain; Bought from Biointron; not shown: mouse IgG Fc (mFc) tag
Procedure: (§3) Competitive ELISA assay was used for epitope binning of purified chimeric antibodies. Briefly excessive competitor antibody and mFc tagged human SIRPα v1 ECD recombinant protein were co-incubated with ELISA microplate coated antibody. After washing, HRP labeled anti-mouse Fc 2nd antibody (Sigma) was added and incubated at 37° C. for 1 hour. Then, 100 μl/well of TMB solution (Biotechnology) was added. After incubation for 15 minutes at room temperature, the reaction was stopped by the addition of 50 μl of 1N HCl. OD 450 nm was read. Competition ratio was calculated. The antibodies that can compete each other for binding to SIRPα may have related binding epitopes.

[11] = target: T8, mFc tagged human SIRPα v1 ECD …; experiment: competitive ELISA binning, mFc-SIRPα v1 ECD; competitor 042c
Procedure: as §3

[12] = target: T9, human SIRPβ stably expressed on CHOK1 cells (human, UniProt O00241 30-398); experiment: FACS, CHOK1-hSIRPβ cells
T9 construct: whole, on cells; also called CHOK1-human SIRPB; CHOK1-hSIRPβ
Excerpt: as §1

[13] = target: T8, mFc tagged human SIRPα v1 ECD …; experiment: competitive ELISA binning, mFc-SIRPα v1 ECD; competitor hu1H9G4
Procedure: as §3

[14] = target: T10, cyno SIRPγ ECD recombinant protein (cyno); experiment: ELISA, cyno SIRPγ ECD
T10 construct: extracellular domain

[15] = target: T2, full length human SIRPα v1 stably …; experiment: competitive FACS, mFc-CD47 ECD on CHOK1-human SIRPα v1 cells
Procedure: Competitive FACS assay was also set up to further compare the blocking activity of the humanized antibodies and reference antibodies. Briefly antibody and mFc tagged human CD47 ECD recombinant protein were co-incubated with CHOK1 cells stably expressing human SIRPα v1 (FIG. 16A) or human SIRPα v2 (FIG. 16B). After washing, dye labeled anti-mouse Fc 2nd antibody (Sigma) was added and incubated at 37° C. for 1 hour. Fluorescence intensity was detected. Blocking ratio was determined by blockade of human CD47 ECD recombinant protein binding to SIRPα expressed CHOK1 cells. […] In particular, HEFLB doesn't work at all for human SIRPα v2.

Sequence of Human SIRPα v1 (antigen of the Octet and Biacore affinity measurements) (P78324 31-370 limits assumed): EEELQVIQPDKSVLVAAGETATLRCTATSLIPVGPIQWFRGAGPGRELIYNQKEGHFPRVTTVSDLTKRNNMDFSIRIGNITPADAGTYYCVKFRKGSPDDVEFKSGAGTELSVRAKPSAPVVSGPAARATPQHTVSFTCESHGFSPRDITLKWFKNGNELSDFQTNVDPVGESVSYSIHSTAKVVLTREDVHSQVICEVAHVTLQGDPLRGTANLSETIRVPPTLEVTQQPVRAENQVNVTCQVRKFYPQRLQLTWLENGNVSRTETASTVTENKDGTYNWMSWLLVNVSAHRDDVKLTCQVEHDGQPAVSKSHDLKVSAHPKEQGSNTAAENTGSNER
T7 sequence (O00241 30-371): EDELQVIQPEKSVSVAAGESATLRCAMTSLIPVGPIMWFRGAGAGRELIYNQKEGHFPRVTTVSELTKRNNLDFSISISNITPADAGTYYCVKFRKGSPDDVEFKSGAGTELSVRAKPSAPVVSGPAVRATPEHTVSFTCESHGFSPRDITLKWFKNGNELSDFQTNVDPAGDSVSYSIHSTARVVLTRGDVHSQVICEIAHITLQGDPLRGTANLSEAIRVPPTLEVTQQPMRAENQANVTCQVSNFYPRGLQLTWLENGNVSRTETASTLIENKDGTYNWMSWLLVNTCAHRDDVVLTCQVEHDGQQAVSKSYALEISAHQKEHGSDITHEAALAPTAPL
T9 sequence (O00241 30-398): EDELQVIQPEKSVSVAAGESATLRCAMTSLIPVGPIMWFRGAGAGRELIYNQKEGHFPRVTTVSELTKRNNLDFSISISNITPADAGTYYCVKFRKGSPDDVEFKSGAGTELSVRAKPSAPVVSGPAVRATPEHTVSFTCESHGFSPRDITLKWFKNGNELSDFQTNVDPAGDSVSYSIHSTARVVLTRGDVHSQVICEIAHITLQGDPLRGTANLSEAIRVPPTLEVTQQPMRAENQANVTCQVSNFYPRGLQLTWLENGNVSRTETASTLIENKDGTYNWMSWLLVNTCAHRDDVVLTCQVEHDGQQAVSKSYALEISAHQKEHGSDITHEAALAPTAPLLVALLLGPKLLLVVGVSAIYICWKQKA
T5 sequence (P78324 31-373): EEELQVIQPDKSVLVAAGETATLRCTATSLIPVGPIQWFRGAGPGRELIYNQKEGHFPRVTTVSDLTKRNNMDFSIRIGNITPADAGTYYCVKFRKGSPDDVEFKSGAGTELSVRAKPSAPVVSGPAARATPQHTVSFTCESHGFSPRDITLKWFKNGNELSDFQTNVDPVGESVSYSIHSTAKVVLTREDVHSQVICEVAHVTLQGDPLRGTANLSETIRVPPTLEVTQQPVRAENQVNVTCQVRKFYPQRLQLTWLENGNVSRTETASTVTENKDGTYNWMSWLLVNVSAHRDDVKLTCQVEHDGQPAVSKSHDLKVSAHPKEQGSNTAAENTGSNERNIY
T8 sequence (P78324 31-373): as above
T2 sequence (P78324 31-504): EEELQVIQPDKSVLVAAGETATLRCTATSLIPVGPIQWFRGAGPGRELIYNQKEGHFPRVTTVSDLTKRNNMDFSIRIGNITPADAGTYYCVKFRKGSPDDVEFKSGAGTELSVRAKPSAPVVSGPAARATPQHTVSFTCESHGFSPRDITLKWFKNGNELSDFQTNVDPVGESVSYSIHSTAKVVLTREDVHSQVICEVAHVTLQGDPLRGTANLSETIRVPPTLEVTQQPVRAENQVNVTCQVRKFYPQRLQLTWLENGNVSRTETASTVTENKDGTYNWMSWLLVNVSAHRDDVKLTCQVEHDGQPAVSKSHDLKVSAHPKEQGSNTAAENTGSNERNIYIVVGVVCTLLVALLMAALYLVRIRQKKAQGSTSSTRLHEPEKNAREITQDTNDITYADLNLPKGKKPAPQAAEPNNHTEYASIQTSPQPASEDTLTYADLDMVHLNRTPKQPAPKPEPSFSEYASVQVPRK
Sequence of full length human SIRPα v1 with a small beta-gal fragment (ED) fused to its C-terminal, expressed in K562 … (P78324 31-504): as above
T6 sequence (Q9P1W8 29-387): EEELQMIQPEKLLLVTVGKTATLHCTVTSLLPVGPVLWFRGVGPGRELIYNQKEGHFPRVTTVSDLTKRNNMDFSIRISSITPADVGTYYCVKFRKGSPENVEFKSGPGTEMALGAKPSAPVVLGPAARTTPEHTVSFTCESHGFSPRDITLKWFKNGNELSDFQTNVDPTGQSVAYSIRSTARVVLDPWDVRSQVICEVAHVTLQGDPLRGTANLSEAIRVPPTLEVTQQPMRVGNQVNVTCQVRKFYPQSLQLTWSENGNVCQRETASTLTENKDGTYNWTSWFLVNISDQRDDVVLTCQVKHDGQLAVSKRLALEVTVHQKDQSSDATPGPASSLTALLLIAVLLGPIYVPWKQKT
T3 sequence (Q5TFQ8 30-371 limits assumed): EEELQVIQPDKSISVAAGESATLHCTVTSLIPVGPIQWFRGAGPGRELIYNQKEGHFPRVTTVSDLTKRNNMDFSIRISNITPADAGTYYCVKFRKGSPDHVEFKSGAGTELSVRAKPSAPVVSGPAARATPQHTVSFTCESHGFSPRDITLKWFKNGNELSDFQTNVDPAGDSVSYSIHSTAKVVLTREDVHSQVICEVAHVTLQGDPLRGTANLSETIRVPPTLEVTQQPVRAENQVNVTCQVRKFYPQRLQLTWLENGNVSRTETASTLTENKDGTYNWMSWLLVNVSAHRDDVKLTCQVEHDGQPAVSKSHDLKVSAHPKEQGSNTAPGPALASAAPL

Row | EC50 [1] | TOP MFI [1] | EC50 [2] | TOP OD450 [2] | SHP-1 recruitment blocking, IC50 [3] | SHP-1 recruitment blocking, TOP blocking (%) [3] | IC50 [4] | TOP blocking (%) [4] | binding result [5] | Kd [6] | koff [6] | kon [6] | IC50 [7] | TOP blocking (%) [7] | EC50 [8] | TOP MFI [8] | EC50 [9] | TOP OD450 [9] | % Competition [10] | % Competition [11] | Binder | further results
1 | 1.93 nM | 74600 MFI | 0.24 nM | 2.74 OD450 | 0.1 nM | 59.5% | 5.74 nM | 98.2% |  | 3.48 nM | 0.00277 s⁻¹ | 795000 M⁻¹ s⁻¹ | 1.91 nM | 97.5% | 0.52 nM | 2720 MFI | 0.03 nM | 3.22 OD450 | 14.5% | 82.6% | hu1H9G4 (antibody, V domains shown) VH: QVQLVQSGAEVKKPGASVKVSCKASGYTFTSYWITWVKQAPGQGLEWIGDIYPGSGSTNHIEKFKSKATLTVDTSISTAYMELSRLRSDDTAVYYCATGYGSSYGYFDYWGQGTLVTVSS VL: DIQMTQSPSSLSASVGDRVTITCRASENIYSYLAWYQQKPGKAPKLLIYTAKTLAEGVPSRFSGSGSGTDFTLTISSLQPEDFATYYCQHQYGPPFTFGQGTKLELK | EC50 [12]: 0.3 nM; TOP MFI [12]: 7140 MFI; % Competition [13]: 90.5%; EC50 [14]: 0.48 nM; TOP OD450 [14]: 1.81 OD450; IC50 [15]: 0.44 nM; TOP blocking (%) [15]: 97.2%
2 | 1.9 nM | 73200 MFI | 0.39 nM | 2.69 OD450 | 0.99 nM | 70% | 4.49 nM | 94.6% | no binding | 9.2 nM | 0.00545 s⁻¹ | 593000 M⁻¹ s⁻¹ | 3.6 nM | 97.1% |  |  | 0.23 nM | 3.23 OD450 | 8.9% | 93.9% | 042c (antibody, V domains shown, also called chimeric antibody 042c) VH: QIQLVQSGPELKKPGETVKISCRASGYTFTTYGMSWVKQAPGKGLRWMGWINTYSGVSTCADDFKGRFAFSLETSATTAYLQIHNLTNEDTATYFCARDPHSYGNSPAWFPYWGQGTLVTVSA VL: DIVMTQSQKFMSTTIRDRVSITCKASQNVGISVAWYQQKSGQSPKLLIYSASNRYTGVPDRFTGSGSGTDFTLTISNMQSEDLADYFCQQYSSYPLTFGSGTKLAIK | EC50 [12]: 39.8 nM; TOP MFI [12]: 3910 MFI; % Competition [13]: 29.8%; EC50 [14]: 20.5 nM; TOP OD450 [14]: 1.22 OD450

Further lines, the binder ahead of its results:

Row | Binder | EC50 [1] | TOP MFI [1] | EC50 [2] | TOP OD450 [2] | SHP-1 recruitment blocking, IC50 [3] | SHP-1 recruitment blocking, TOP blocking (%) [3] | IC50 [4] | TOP blocking (%) [4] | binding result [5] | Kd [6] | koff [6] | kon [6] | IC50 [7] | TOP blocking (%) [7] | EC50 [8] | TOP MFI [8] | EC50 [9] | TOP OD450 [9] | % Competition [10] | % Competition [11] | further results
3 | 059c (antibody, V domains shown, also called chimeric antibody 059c) VH: QVQLQQSGPELVKPGASVKMSCKASGYTFSEYVLSWVKQRTGQGLEWIGEIYPGTITTYYNEKFKGKATLTADKSSNTAYIQLTSLTSEDSAVYFCGRFYDYDGGWFAYWGQGTLLTVSA VL: ENVLTQSPEKMAVSLGQKVTMTCSASSSVSSSDLHWYQQKSGASPKPLIHGTSNLASGVPARFSGSGSGTSYSLTISSVEAEDAATYYCQQWSGYPWTFGGGTNLEIK | 1.45 nM | 69800 MFI | 0.7 nM | 3.35 OD450 | 0.07 nM | 66.9% | 54.1 nM | 84.4% | no binding | 2.25 nM | 0.00213 s⁻¹ | 944000 M⁻¹ s⁻¹ | 2.63 nM | 97% | 34.1 nM | 2860 MFI | 0.03 nM | 2.75 OD450 |  |  | 
4 | 015c (antibody, V domains shown, also called chimeric antibody 015c) VH: EVQLQQSGVEVVQPGASVKLSCTASGFNIEAYYMHWVKQRTEQGLEWIGRIDPEDGESKYAPKFQGKATMTADTSSSTAYLQLSSLTSDDTAVYYCVRGSYEYWGQGTTLTVSS VL: QIVLTQSPAIMSASPGEKVTLTCSASSSVSSSYLYWYQQKPGSSPKLWIYSTSNLASGVPPRFSGSGSGTSYSLTISSMQAEDAASYFCYQWSSYPYTFGGGTKLEIK | 1.49 nM | 80000 MFI | 0.4 nM | 3.1 OD450 | 0.09 nM | 73.5% | 2.45 nM | 96.7% | no binding | 0.338 nM | 0.000303 s⁻¹ | 897000 M⁻¹ s⁻¹ | 2.32 nM | 96.4% | 0.09 nM | 3300 MFI | 0.04 nM | 2.97 OD450 |  |  | 
